Measurements taken from patent US20240327535A1 (EISAI R AND D MANAGEMENT, published 2024).
Numbering of substitutions follows the chain as printed.

T1: extracellular domain of human BCMA (human, UniProt Q02223 1-54)
T1 construct: amine-linked to Octet AR2G tips; also called hsBCMA; BCMA (human)
T1 sequence: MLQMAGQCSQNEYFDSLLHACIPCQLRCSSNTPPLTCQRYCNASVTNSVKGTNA

B1: AB200-R1H26-R2Vk1 (Fab, V domains shown)
VH: QVQLVQSGAEVKKPGSSVKVSCKASGGSFSNYWMHWVRQAPGQGLEWMGATYRIHSDTFYNQKFKGRVTITADKSTSTAYMELSSLRSEDTAVYYCARGAIYHGYDVLDNWGQGTLVTVSS
VL: DIQMTQSPSSLSASVGDRVTITCRASQSISSYLNWYQQKPGKAPKLLIYAASSLQSGVPSRFSGSGSGTDFTLTISSLQPEDFATYYCQQFRKLPWSFGQGTKLEIKR
B2: AB200-R1H26-R2Vk14 (Fab, V domains shown)
VH: B1 VH
VL: B1 VL with L33I, F91Y, K93R
B3: AB200-R1H26-R2Vk16 (Fab, V domains shown)
VH: B1 VH
VL: B1 VL with L33I, K93R, S97T
B4: AB200-R1H26-R2Vk15 (Fab, V domains shown)
VH: B1 VH
VL: B1 VL with L33I, F91Y, K93R, L94I, S97T
B5: AB200-R1H26-R2Vk18 (Fab, V domains shown)
VH: B1 VH
VL: B1 VL with L33I, L94I, S97T
B6: AB200-R1H26-R2Vk17 (Fab, V domains shown)
VH: B1 VH
VL: B1 VL with L33I, F91Y, L94I
B7: AB200-R1H26-R2Vk2 (Fab, V domains shown)
VH: B1 VH
VL: B1 VL with L33I
B8: AB200-R1H26-R2Vk19 (Fab, V domains shown)
VH: B1 VH
VL: B1 VL with A51T, S53N, F91Y, K93R
B9: AB200-R1H26-R2Vk38 (Fab, V domains shown)
VH: B1 VH
VL: B1 VL with L33I, A51T, S53N, L94I, S97T
B10: AB200-R1H26-R2Vk5 (Fab, V domains shown)
VH: B1 VH
VL: B1 VL with A51T, S53N, S56I
B11: AB200-R1H26-R2Vk42 (Fab, V domains shown)
VH: B1 VH
VL: B1 VL with L33I, A51T, S53N, L54I, F91Y, L94I
B12: AB200-R1H26-R2Vk21 (Fab, V domains shown)
VH: B1 VH
VL: B1 VL with A51T, S53N, K93R, S97T
B13: AB200-R1H26-R2Vk41 (Fab, V domains shown)
VH: B1 VH
VL: B1 VL with L33I, A51T, S53N, L54I, K93R, S97T
B14: AB200-R1H26-R2Vk43 (Fab, V domains shown)
VH: B1 VH
VL: B1 VL with L33I, A51T, S53N, L54I, L94I, S97T
B15: AB200-R1H26-R2Vk9 (Fab, V domains shown)
VH: B1 VH
VL: B1 VL with F91Y, K93R
B16: AB200-R1H26-R2Vk20 (Fab, V domains shown)
VH: B1 VH
VL: B1 VL with A51T, S53N, F91Y, K93R, L94I, S97T
B17: AB200-R1H26-R2Vk47 (Fab, V domains shown)
VH: B1 VH
VL: B1 VL with L33I, A51T, S53N, S56I, F91Y, L94I
B18: AB200-R1H26-R2Vk10 (Fab, V domains shown)
VH: B1 VH
VL: B1 VL with F91Y, K93R, L94I, S97T
B19: AB200-R1H26-R2Vk30 (Fab, V domains shown)
VH: B1 VH
VL: B1 VL with A51T, S53N, S56I, F91Y, K93R, L94I, S97T
B20: AB200-R1H26-R2Vk33 (Fab, V domains shown)
VH: B1 VH
VL: B1 VL with A51T, S53N, S56I, L94I, S97T
B21: AB200-R1H26-R2Vk22 (Fab, V domains shown)
VH: B1 VH
VL: B1 VL with A51T, S53N, F91Y, L94I
B22: AB200-R1H26-R2Vk26 (Fab, V domains shown)
VH: B1 VH
VL: B1 VL with A51T, S53N, L54I, K93R, S97T
B23: AB200-R1H26-R2Vk31 (Fab, V domains shown)
VH: B1 VH
VL: B1 VL with A51T, S53N, S56I, K93R, S97T
B24: AB200-R1H26-R2Vk45 (Fab, V domains shown)
VH: B1 VH
VL: B1 VL with L33I, A51T, S53N, S56I, F91Y, K93R, L94I, S97T
B25: AB200-R1H26-R2Vk4 (Fab, V domains shown)
VH: B1 VH
VL: B1 VL with A51T, S53N, L54I
B26: AB200-R1H26-R2Vk6 (Fab, V domains shown)
VH: B1 VH
VL: B1 VL with L33I, A51T, S53N
B27: AB200-R1H26-R2Vk29 (Fab, V domains shown)
VH: B1 VH
VL: B1 VL with A51T, S53N, S56I, F91Y, K93R
B28: AB200-R1H26-R2Vk35 (Fab, V domains shown)
VH: B1 VH
VL: B1 VL with L33I, A51T, S53N, F91Y, K93R, L94I, S97T
B29: AB200-R1H26-R2Vk36 (Fab, V domains shown)
VH: B1 VH
VL: B1 VL with L33I, A51T, S53N, K93R, S97T
B30: AB200-R1H26-R2Vk3 (Fab, V domains shown)
VH: B1 VH
VL: B1 VL with A51T, S53N
B31: AB200-R1H26-R2Vk12 (Fab, V domains shown)
VH: B1 VH
VL: B1 VL with F91Y, L94I
B32: AB200-R1H26-R2Vk23 (Fab, V domains shown)
VH: B1 VH
VL: B1 VL with A51T, S53N, L94I, S97T
B33: AB200-R1H26-R2Vk7 (Fab, V domains shown)
VH: B1 VH
VL: B1 VL with L33I, A51T, S53N, L54I
B34: AB200-R1H26-R2Vk13 (Fab, V domains shown)
VH: B1 VH
VL: B1 VL with L94I, S97T
B35: AB200-R1H26-R2Vk37 (Fab, V domains shown)
VH: B1 VH
VL: B1 VL with L33I, A51T, S53N, F91Y, L94I
B36: AB200-R1H26-R2Vk34 (Fab, V domains shown)
VH: B1 VH
VL: B1 VL with L33I, A51T, S53N, F91Y, K93R
B37: AB200-R1H26-R2Vk40 (Fab, V domains shown)
VH: B1 VH
VL: B1 VL with L33I, A51T, S53N, L54I, F91Y, K93R, L94I, S97T
B38: AB200-R1H26-R2Vk48 (Fab, V domains shown)
VH: B1 VH
VL: B1 VL with L33I, A51T, S53N, S56I, L94I, S97T
B39: AB200-R1H26-R2Vk28 (Fab, V domains shown)
VH: B1 VH
VL: B1 VL with A51T, S53N, L54I, L94I, S97T
B40: AB200-R1H26-R2Vk25 (Fab, V domains shown)
VH: B1 VH
VL: B1 VL with A51T, S53N, L54I, F91Y, K93R, L94I, S97T
B41: AB200-R1H26-R2Vk8 (Fab, V domains shown)
VH: B1 VH
VL: B1 VL with L33I, A51T, S53N, S56I
B42: AB200-R1H26-R2Vk11 (Fab, V domains shown)
VH: B1 VH
VL: B1 VL with K93R, S97T
B43: AB200-R1H26-R2Vk46 (Fab, V domains shown)
VH: B1 VH
VL: B1 VL with L33I, A51T, S53N, S56I, K93R, S97T
B44: AB200-R1H26-R2Vk39 (Fab, V domains shown)
VH: B1 VH
VL: B1 VL with L33I, A51T, S53N, L54I, F91Y, K93R
B45: AB200-R1H26-R2Vk27 (Fab, V domains shown)
VH: B1 VH
VL: B1 VL with A51T, S53N, L54I, F91Y, L94I
B46: AB200-R1H26-R2Vk44 (Fab, V domains shown)
VH: B1 VH
VL: B1 VL with L33I, A51T, S53N, S56I, F91Y, K93R
B47: AB200-R1H26-R2Vk32 (Fab, V domains shown)
VH: B1 VH
VL: B1 VL with A51T, S53N, S56I, F91Y, L94I
B48: AB200-R1H26-R2Vk24 (Fab, V domains shown)
VH: B1 VH
VL: B1 VL with A51T, S53N, L54I, F91Y, K93R

Target: T1, extracellular domain of human BCMA
Test: Octet BLI; Fab 200 nM

Row | Binder | Kd
1 | B1 | 2.04 nM
2 | B2 | 2.52 nM
3 | B3 | 2.09 nM
4 | B4 | 3.27 nM
5 | B5 | 3.44 nM
6 | B6 | 3.59 nM
7 | B7 | 2.37 nM
8 | B8 | 1.62 nM
9 | B9 | 2.85 nM
10 | B10 | 1.29 nM
11 | B11 | 2.42 nM
12 | B12 | 1.27 nM
13 | B13 | 1.87 nM
14 | B14 | 3.23 nM
15 | B15 | 2.35 nM
16 | B16 | 2.1 nM
17 | B17 | 1.73 nM
18 | B18 | 3.23 nM
19 | B19 | 1.74 nM
20 | B20 | 1.74 nM
21 | B21 | 2.24 nM
22 | B22 | 1.46 nM
23 | B23 | 1.1 nM
24 | B24 | 1.57 nM

Row | Binder | Kd
25 | B25 | 1.7 nM
26 | B26 | 2.08 nM
27 | B27 | 1.18 nM
28 | B28 | 1.76 nM
29 | B29 | 1.67 nM
30 | B30 | 1.62 nM
31 | B31 | 3.72 nM
32 | B32 | 2.28 nM
33 | B33 | 2.17 nM
34 | B34 | 3.02 nM
35 | B35 | 2.3 nM
36 | B36 | 1.55 nM
37 | B37 | 2.34 nM
38 | B38 | 2.31 nM
39 | B39 | 2.68 nM
40 | B40 | 2.04 nM
41 | B41 | 1.69 nM
42 | B42 | 1.55 nM
43 | B43 | 1.35 nM
44 | B44 | 1.83 nM
45 | B45 | 2.33 nM
46 | B46 | 1.28 nM
47 | B47 | 1.93 nM
48 | B48 | 1.62 nM
